# Assay results published in patent publication US11833164B2, “Methods of treating Fabry disease in patients having a mutation in the GLA gene” (Amicus Therapeutics, Inc., priority 2019, dated 2023).
# System: mutant form of α-Gal A expressed in HEK-293 cells
# Assay: HEK assay (GLP HEK / Migalastat Amenability Assay): α-Gal A activity in lysates of transiently transfected HEK-293 cells incubated with or without 10 μM migalastat
# Format: cell-based, human
# Conditions: for Absolute increase (% WT) / Relative increase: 10 μM migalastat versus baseline; for Baseline α-Gal A activity (% WT): absence of migalastat; for Baseline α-Gal A activity (% WT) / 10 μM migalastat α-Gal A activity (% WT): percentage of baseline wild-type α-Gal A activity; for Baseline α-Gal A activity (% WT) / Baseline α-Gal A activity / 10 μM migalastat α-Gal A activity / 10 μM migalastat α-Gal A activity (% WT): mean ± SEM; for Baseline α-Gal A activity / 10 μM migalastat α-Gal A activity: lysates of HEK-293 cells transiently transfected with the mutant form; for Baseline α-Gal A activity: incubated 5 days in absence of migalastat; for 10 μM migalastat α-Gal A activity: incubated 5 days with 10 μM migalastat; for 10 μM migalastat α-Gal A activity (% WT): with 10 μM migalastat, 5 days
# Summary of the method: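 Activity reported as 4-MU released (nmol/mg/hr), mean±SEM, from lysates of transiently transfected HEK-293 cells expressing mutant α-Gal A, cultured with or without 10 μM migalastat.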
Molecule,Absolute increase (% WT),Relative increase,Baseline α-Gal A activity (% WT),Baseline α-Gal A activity,10 μM migalastat α-Gal A activity,10 μM migalastat α-Gal A activity (% WT)
L347I (protein) MQLRNPELHLGCALALRFLALVSWDIPGARALDNGLARTPTMGWLHWERFMCNLDCQEEPDSCISEKLFMEMAELMVSEGWKDAGYEYLCIDDCWMAPQRDSEGRLQADPQRFPHGIRQLANYVHSKGLKLGIYADVGNKTCAGFPGSFGYYDIDAQTFADWGVDLLKFDGCYCDSLENLADGYKHMSLALNRTGRSIVYSCEWPLYMWPFQKPNYTEIRQYCNHWRNFADIDDSWKSIKSILDWTSFNQERIVDVAGPGGWNDPDMLVIGNFGLSWNQQVTQMALWAIMAAPLFMSNDLRHISPQAKALLQDKDVIAINQDPLGKQGYQLRQGDNFEVWERPLSGIAWAVAMINRQEIGGPRSYTIAVASLGKGVACNPACFITQLLPVKRKLGFYEWTSRLRSHINPTGTVLLQLENTMQMSLKDLL,17.4 % WT,1.3,65 ± 3.8 % WT,26815 ± 2533 nmol/mg/h,33517 ± 2802 nmol/mg/h,82.4 ± 5 % WT
A350V (protein) MQLRNPELHLGCALALRFLALVSWDIPGARALDNGLARTPTMGWLHWERFMCNLDCQEEPDSCISEKLFMEMAELMVSEGWKDAGYEYLCIDDCWMAPQRDSEGRLQADPQRFPHGIRQLANYVHSKGLKLGIYADVGNKTCAGFPGSFGYYDIDAQTFADWGVDLLKFDGCYCDSLENLADGYKHMSLALNRTGRSIVYSCEWPLYMWPFQKPNYTEIRQYCNHWRNFADIDDSWKSIKSILDWTSFNQERIVDVAGPGGWNDPDMLVIGNFGLSWNQQVTQMALWAIMAAPLFMSNDLRHISPQAKALLQDKDVIAINQDPLGKQGYQLRQGDNFEVWERPLSGLAWVVAMINRQEIGGPRSYTIAVASLGKGVACNPACFITQLLPVKRKLGFYEWTSRLRSHINPTGTVLLQLENTMQMSLKDLL,22.3 % WT,1.8,27.9 ± 0.9 % WT,12786 ± 654 nmol/mg/h,22855 ± 1012 nmol/mg/h,50.2 ± 1.6 % WT
A350G (protein) MQLRNPELHLGCALALRFLALVSWDIPGARALDNGLARTPTMGWLHWERFMCNLDCQEEPDSCISEKLFMEMAELMVSEGWKDAGYEYLCIDDCWMAPQRDSEGRLQADPQRFPHGIRQLANYVHSKGLKLGIYADVGNKTCAGFPGSFGYYDIDAQTFADWGVDLLKFDGCYCDSLENLADGYKHMSLALNRTGRSIVYSCEWPLYMWPFQKPNYTEIRQYCNHWRNFADIDDSWKSIKSILDWTSFNQERIVDVAGPGGWNDPDMLVIGNFGLSWNQQVTQMALWAIMAAPLFMSNDLRHISPQAKALLQDKDVIAINQDPLGKQGYQLRQGDNFEVWERPLSGLAWGVAMINRQEIGGPRSYTIAVASLGKGVACNPACFITQLLPVKRKLGFYEWTSRLRSHINPTGTVLLQLENTMQMSLKDLL,9.5 % WT,1.2,41 ± 0.9 % WT,21459 ± 695 nmol/mg/h,26360 ± 1002 nmol/mg/h,50.5 ± 1.7 % WT
A348D (protein) MQLRNPELHLGCALALRFLALVSWDIPGARALDNGLARTPTMGWLHWERFMCNLDCQEEPDSCISEKLFMEMAELMVSEGWKDAGYEYLCIDDCWMAPQRDSEGRLQADPQRFPHGIRQLANYVHSKGLKLGIYADVGNKTCAGFPGSFGYYDIDAQTFADWGVDLLKFDGCYCDSLENLADGYKHMSLALNRTGRSIVYSCEWPLYMWPFQKPNYTEIRQYCNHWRNFADIDDSWKSIKSILDWTSFNQERIVDVAGPGGWNDPDMLVIGNFGLSWNQQVTQMALWAIMAAPLFMSNDLRHISPQAKALLQDKDVIAINQDPLGKQGYQLRQGDNFEVWERPLSGLDWAVAMINRQEIGGPRSYTIAVASLGKGVACNPACFITQLLPVKRKLGFYEWTSRLRSHINPTGTVLLQLENTMQMSLKDLL,8.4 % WT,1.2,41.6 ± 1.5 % WT,21682 ± 817 nmol/mg/h,26025 ± 1129 nmol/mg/h,50 ± 2.2 % WT
V351A (protein) MQLRNPELHLGCALALRFLALVSWDIPGARALDNGLARTPTMGWLHWERFMCNLDCQEEPDSCISEKLFMEMAELMVSEGWKDAGYEYLCIDDCWMAPQRDSEGRLQADPQRFPHGIRQLANYVHSKGLKLGIYADVGNKTCAGFPGSFGYYDIDAQTFADWGVDLLKFDGCYCDSLENLADGYKHMSLALNRTGRSIVYSCEWPLYMWPFQKPNYTEIRQYCNHWRNFADIDDSWKSIKSILDWTSFNQERIVDVAGPGGWNDPDMLVIGNFGLSWNQQVTQMALWAIMAAPLFMSNDLRHISPQAKALLQDKDVIAINQDPLGKQGYQLRQGDNFEVWERPLSGLAWAAAMINRQEIGGPRSYTIAVASLGKGVACNPACFITQLLPVKRKLGFYEWTSRLRSHINPTGTVLLQLENTMQMSLKDLL,14.2 % WT,1.3,56.9 ± 4.7 % WT,24009 ± 1662 nmol/mg/h,30218 ± 1531 nmol/mg/h,71.1 ± 4.1 % WT
W349C (protein) MQLRNPELHLGCALALRFLALVSWDIPGARALDNGLARTPTMGWLHWERFMCNLDCQEEPDSCISEKLFMEMAELMVSEGWKDAGYEYLCIDDCWMAPQRDSEGRLQADPQRFPHGIRQLANYVHSKGLKLGIYADVGNKTCAGFPGSFGYYDIDAQTFADWGVDLLKFDGCYCDSLENLADGYKHMSLALNRTGRSIVYSCEWPLYMWPFQKPNYTEIRQYCNHWRNFADIDDSWKSIKSILDWTSFNQERIVDVAGPGGWNDPDMLVIGNFGLSWNQQVTQMALWAIMAAPLFMSNDLRHISPQAKALLQDKDVIAINQDPLGKQGYQLRQGDNFEVWERPLSGLACAVAMINRQEIGGPRSYTIAVASLGKGVACNPACFITQLLPVKRKLGFYEWTSRLRSHINPTGTVLLQLENTMQMSLKDLL,12.3 % WT,1.3,41.5 ± 2.6 % WT,17800 ± 1182 nmol/mg/h,23210 ± 1299 nmol/mg/h,53.7 ± 2.5 % WT
A350T (protein) MQLRNPELHLGCALALRFLALVSWDIPGARALDNGLARTPTMGWLHWERFMCNLDCQEEPDSCISEKLFMEMAELMVSEGWKDAGYEYLCIDDCWMAPQRDSEGRLQADPQRFPHGIRQLANYVHSKGLKLGIYADVGNKTCAGFPGSFGYYDIDAQTFADWGVDLLKFDGCYCDSLENLADGYKHMSLALNRTGRSIVYSCEWPLYMWPFQKPNYTEIRQYCNHWRNFADIDDSWKSIKSILDWTSFNQERIVDVAGPGGWNDPDMLVIGNFGLSWNQQVTQMALWAIMAAPLFMSNDLRHISPQAKALLQDKDVIAINQDPLGKQGYQLRQGDNFEVWERPLSGLAWTVAMINRQEIGGPRSYTIAVASLGKGVACNPACFITQLLPVKRKLGFYEWTSRLRSHINPTGTVLLQLENTMQMSLKDLL,14.4 % WT,1.3,47.4 ± 3.7 % WT,20227 ± 1499 nmol/mg/h,26484 ± 1189 nmol/mg/h,61.7 ± 2.7 % WT
A350S (protein) MQLRNPELHLGCALALRFLALVSWDIPGARALDNGLARTPTMGWLHWERFMCNLDCQEEPDSCISEKLFMEMAELMVSEGWKDAGYEYLCIDDCWMAPQRDSEGRLQADPQRFPHGIRQLANYVHSKGLKLGIYADVGNKTCAGFPGSFGYYDIDAQTFADWGVDLLKFDGCYCDSLENLADGYKHMSLALNRTGRSIVYSCEWPLYMWPFQKPNYTEIRQYCNHWRNFADIDDSWKSIKSILDWTSFNQERIVDVAGPGGWNDPDMLVIGNFGLSWNQQVTQMALWAIMAAPLFMSNDLRHISPQAKALLQDKDVIAINQDPLGKQGYQLRQGDNFEVWERPLSGLAWSVAMINRQEIGGPRSYTIAVASLGKGVACNPACFITQLLPVKRKLGFYEWTSRLRSHINPTGTVLLQLENTMQMSLKDLL,17.6 % WT,1.3,62.9 ± 4.2 % WT,26493 ± 1291 nmol/mg/h,34474 ± 1484 nmol/mg/h,80.5 ± 3.6 % WT
W349L (protein) MQLRNPELHLGCALALRFLALVSWDIPGARALDNGLARTPTMGWLHWERFMCNLDCQEEPDSCISEKLFMEMAELMVSEGWKDAGYEYLCIDDCWMAPQRDSEGRLQADPQRFPHGIRQLANYVHSKGLKLGIYADVGNKTCAGFPGSFGYYDIDAQTFADWGVDLLKFDGCYCDSLENLADGYKHMSLALNRTGRSIVYSCEWPLYMWPFQKPNYTEIRQYCNHWRNFADIDDSWKSIKSILDWTSFNQERIVDVAGPGGWNDPDMLVIGNFGLSWNQQVTQMALWAIMAAPLFMSNDLRHISPQAKALLQDKDVIAINQDPLGKQGYQLRQGDNFEVWERPLSGLALAVAMINRQEIGGPRSYTIAVASLGKGVACNPACFITQLLPVKRKLGFYEWTSRLRSHINPTGTVLLQLENTMQMSLKDLL,11.8 % WT,1.3,35 ± 1.6 % WT,18128 ± 742 nmol/mg/h,24184 ± 1517 nmol/mg/h,46.8 ± 3.2 % WT
